Measurements: patent US7704703B2, “Arf and Hdm2 interaction domains and the methods of use thereof” (St. Jude Children's Research Hospital, Inc., priority 2002, dated 2010)
“Also recorded” adds a separate entry of the source.

How the values were obtained:
[1] = molecular target: T1, Hdm2 210-275 (Homo sapiens, UniProt Q00987); test: CD-based binding assay, induction of β-strand secondary structure with Hdm2 210-275
T1 construct: poly-His (thrombin cleavable, pET28a) (cleaved yes); made in house; host or cells: E. coli BL21(DE3)
Method: Circular Dichroism. Spectra were recorded at 25° C. using an Aviv Model 62A DS circular dichroism spectropolarimeter (Aviv Instruments, Inc.) equipped with a thermoelectric temperature control unit. All samples were prepared in 10 mM Tris-HCl, pH 7.0 at 0.02-0.2 mM as determined by amino acid analysis. Spectra were recorded using 1 mm quartz cuvettes and reported spectra are the average of 10 scans over the range […]. Melting experiments were recorded in 10 mm quartz cuvettes with active stirring. The signal at 216 nm (β strand minimum) was used to monitor structural changes and the signal was averaged over 15 sec. The sample temperature was increased in 1° C. steps.
β-strand secondary structure forms when Arf and Hdm2 interact. […] This structural transition is induced when mArfN37 is added to an Hdm2 fragment and when an Hdm2 fragment is added to mArfN37. […] In contrast, the uncomplexed species elute at times consistent with monodisperse, conformationally extended polypeptides. Second, NMR resonances for ^15N-mArfN37 or ^15N-Hdm2 210-304 (and ^15N-Hdm2 210-275) are broadened beyond detection when an unlabeled form of the appropriate binding partner is added to the solution. At mArfN37:Hdm2 210-304 (or mArfN37:Hdm2 210-275) molar ratios that produce maximal β-strand secondary structure based on ellipticity at 200 nm using CD, resonances cannot be observed for the isotope-labeled component of Arf/Hdm2 mixtures. Further, the NMR spectra are consistent with slow exchange between the free and bound states.
Characterization of Arf Hdm2 assemblies. As discussed above, the addition of mArfN37 to Hdm2 210-304 results in the formation of supramolecular assemblies comprised of β-strands. Stepwise addition of sub-stoichiometric amounts of mArfN37 to Hdm2 210-304 increased β-strand secondary structure content as judged by the change in ellipticity at 200 nm using CD. […] The binding of mArfN37 to Hdm2 210-304, as monitored in this way, is saturable. Similar results were obtained when mArfN37 was mixed with the shorter fragment of Hdm2, Hdm2 210-275. Further, saturable binding is also observed when the Hdm2 fragments were added to an excess of mArfN37. These findings indicate that there are a limited number of binding sites for mArfN37 within Hdm2 210-304 and that discreet structures (containing β-strands) form when mArfN37 and Hdm2 210-304 (or 210-275) are mixed. […] Similar behavior is observed when mArfN37 binds Hdm2 210-275.

[2] = molecular target: T2, GFP-p19^Arf (Mus musculus, UniProt Q64364); test: Microinjection and live cell imaging of Texas Red labeled Hdm2 constructs in NIH 3T3 cells lacking Arf; format: cell-based; conditions: for localization after nuclear microinjection in the presence of GFP-p19^Arf: transfected with GFP-p19^Arf
T2 construct: expressed in transfected cells; host or cells: NIH 3T3 Arf-/- cells
T2 sequence (Q64364 1-169): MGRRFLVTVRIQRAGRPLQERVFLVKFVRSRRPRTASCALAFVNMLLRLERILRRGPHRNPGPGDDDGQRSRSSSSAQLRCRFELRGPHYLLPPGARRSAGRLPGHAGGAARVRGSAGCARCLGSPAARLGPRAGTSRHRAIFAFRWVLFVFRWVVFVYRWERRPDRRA
Method: Fluorescent labeling. Proteins for fluorescence microimaging studies were covalently modified using an amine-reactive, sulfosuccinimidyl ester of TEXAS RED® (C31H29S2N2O6Cl1) (Molecular Probes, Inc., Cat. # C-1171). In brief, purified Hdm2-derived proteins were dialyzed into 100 mM sodium bicarbonate buffer, pH 8.3 at 2-4 mg/ml. The Texas Red™ dye was dissolved in dimethylsulfoxide at 10 mg/ml. Protein and dye 3:1 (vol:vol) were reacted for 1 hour at room temperature followed by purification using size-exclusion chromatography (NAP 5 G-25 columns, Amersham Pharmacia Biotech, Inc.). Labeled protein bands migrated more slowly than unlabeled protein in SDS-polyacrylamide gels consistent with the covalent attachment of dye.
Cell culture and microinjection. NIH 3T3 Arf^−/− cells passage 10-15 were cultured in Dulbecco's modified Eagle's medium (Dulbecco's modified Eagle's medium (DMEM); Gibco-Invitrogen, Inc.), 10% fetal bovine serum (FBS) at 37° C., 7% CO2. […] GFP-Arf positive cells were then located and co-injected with TEXAS RED® (C31H29S2N2O6C1 labeled Hdm2 polypeptides (2 mg/ml in 20 mM Tris-HCl, 100 mM NaCl, pH 7.0) using a Micromanipulator 5171/Transjector 5246 (Eppendorf, AG) in media supplemented with 10 mM HEPES, pH 7.2 to buffer cell media during injection and imaging. Representative cells were imaged over time. An Axiovert 135 TV inverted fluorescence microscope with an automated stage controller (Carl Zeiss, Inc.) and circulating water bath heater (Fisher) was used for both microinjection and imaging. Images were acquired with a Zeiss 40×NA=1.30 oil objective and MicroMax CCD camera (Princeton Instruments Inc.) operated with MetaMorph Version 4.01 imaging software. […]
TEXAS RED® (C31H29S2N2O6Cl1) labeled Hdm2 deletion constructs containing residues 210-275, 210-304, 277-350 and 277-491 were individually injected into cells in the absence or presence of the GFP-p19^Arf fusion protein. […] The use of live cell imaging also allowed the kinetics of localization to be monitored. […]

[3] = molecular target: T3, mArfN37 (Mus musculus, UniProt Q64364); test: Surface plasmon resonance: Hdm2 fragments and peptides binding to immobilized His-tagged mArfN37
T3 construct: mouse p19^Arf corresponding to residues 1-37 (mArfN37); made in house; host or cells: E. coli BL21(DE3) (purified 'in a similar manner' to the Hdm2 fragments)
T3 sequence (Q64364 1-37 limits assumed): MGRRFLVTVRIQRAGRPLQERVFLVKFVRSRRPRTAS
Method: Surface Plasmon Resonance. Binding studies were performed using a Biacore 3000 surface plasmon resonance (SPR) instrument (Biacore, Inc.). A Tetra-His™ Antibody (Qiagen, Inc.; Cat. #34670) was covalently attached to a carboxymethylated gold surface (C-1 chip; Biacore, Inc.). The carboxymethyl groups on the surface were activated with N-ethyl-N′-(3-dimethylaminopropyl) carbodiimide (EDC) and N-hydroxysuccinimide (NHS) and the antibody was attached at pH 7.4 in 20 mM sodium phosphate buffer, 150 mM NaCl (PBS). Reactive sites remaining on the surface were blocked by reaction with ethanolamine. […] Binding was measured by flowing the non-His-tagged analyte through the reference and ligand-containing flow cells in sequence. […] Changes in the SPR response due to solvent differences and the injection process were monitored by injection of HBS-N buffer alone. […]
Small segments of Arf and Hdm2 participate in Arf/Hdm2 interactions. […] However, because mArfN37 is a relatively small polypeptide, it was determined whether it could bind a correspondingly small segment of Hdm2. To test this hypothesis and to monitor Arf/Hdm2 binding reactions quantitatively, Hdm2 constructs were prepared spanning amino acids 210-304 of SEQ ID NO:8 and 210-275 of SEQ ID NO:8 and then it was determined whether they could bind mArfN37 using surface plasmon resonance (SPR). […]

T1 sequence (Q00987 210-275): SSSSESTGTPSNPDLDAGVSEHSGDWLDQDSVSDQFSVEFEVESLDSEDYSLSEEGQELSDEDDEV

## MVRRFLVTLRIRRA (listed as Homo sapiens) [human A1 (1-14), peptide of the first Arf motif of human p14^Arf, residues 1-14]
[1]
  induction of β-strand secondary structure/assembly when mixed with Hdm2 210-275 (CD): interaction

## mouse A2 (16-30): peptide corresponding to the second mouse Arf motif, residues 16-30 (RPLQERVFLVKFVRS)
[1]
  induction of β-strand secondary structure/assembly when mixed with Hdm2 210-275 (CD): fail to induce β-strand assembly

## mouse A1 (1-14): peptide corresponding to the first mouse Arf motif, residues 1-14 (MGRRFLVTVRIQRA)
[1]
  induction of β-strand secondary structure/assembly when mixed with Hdm2 210-275 (CD): interaction

## human A2 (16-30): peptide containing the second human Arf motif, residues 16-30 (GPPRVRVFVVHIPRL)
[1]
  induction of β-strand secondary structure/assembly when mixed with Hdm2 210-275 (CD): fail to induce β-strand assembly

## Hdm2 277-491: Texas Red labeled Hdm2 deletion construct containing residues 277-491
[2]
  localization after nuclear microinjection in the presence of GFP-p19^Arf: nucleolar localization

## peptide containing residues 290-304: short synthetic Hdm2 peptide, residues 290-304 of SEQ ID NO:8 (SFEEDPEISLADYWK; listed as Homo sapiens)
[3]; 15 amino acid peptides of the central region of Hdm2
  relative affinity of Hdm2 synthetic peptides for mArfN37 (SPR): modest affinity

## Hdm2 210-304: Arf-binding domain of Hdm2, amino acids 210-304 of SEQ ID NO:8
[3]; Hdm2 protein fragments as analyte, no binding to control surface
  binding of Hdm2 fragment to His-tagged mArfN37 immobilized on SPR biosensor surface: bind tightly
[2]; no GFP-p19^Arf
  localization after nuclear microinjection in the absence of Arf: evenly dispersed in the nucleoplasm
[2]
  localization after nuclear microinjection in the presence of GFP-p19^Arf: co-localized within nucleoli; also recorded: nucleolar localization
